In patent US20200299407 (published 2020):

Assays:
[1] = biological target: human transferrin receptor (human, UniProt P02786); test: SPR
[2] = biological target: Her2 ECD (Pertuzumab KO)-Fc knob (human); test: SPR, 25C
[3] = biological target: HER2 ECD (aa 1-629 mature) (human); test: SPR
[4] = biological target: Her2 ECD (Trastuzumab KO)-Fc knob (human); test: SPR
[5] = biological target: Her2 ECD (Pertuzumab KO)-Fc knob (human); test: SPR
[6] = biological target: Her2 ECD (Trastuzumab KO)-Fc knob (human); test: SPR, 25C

Chain of human transferrin receptor (P02786 89-760): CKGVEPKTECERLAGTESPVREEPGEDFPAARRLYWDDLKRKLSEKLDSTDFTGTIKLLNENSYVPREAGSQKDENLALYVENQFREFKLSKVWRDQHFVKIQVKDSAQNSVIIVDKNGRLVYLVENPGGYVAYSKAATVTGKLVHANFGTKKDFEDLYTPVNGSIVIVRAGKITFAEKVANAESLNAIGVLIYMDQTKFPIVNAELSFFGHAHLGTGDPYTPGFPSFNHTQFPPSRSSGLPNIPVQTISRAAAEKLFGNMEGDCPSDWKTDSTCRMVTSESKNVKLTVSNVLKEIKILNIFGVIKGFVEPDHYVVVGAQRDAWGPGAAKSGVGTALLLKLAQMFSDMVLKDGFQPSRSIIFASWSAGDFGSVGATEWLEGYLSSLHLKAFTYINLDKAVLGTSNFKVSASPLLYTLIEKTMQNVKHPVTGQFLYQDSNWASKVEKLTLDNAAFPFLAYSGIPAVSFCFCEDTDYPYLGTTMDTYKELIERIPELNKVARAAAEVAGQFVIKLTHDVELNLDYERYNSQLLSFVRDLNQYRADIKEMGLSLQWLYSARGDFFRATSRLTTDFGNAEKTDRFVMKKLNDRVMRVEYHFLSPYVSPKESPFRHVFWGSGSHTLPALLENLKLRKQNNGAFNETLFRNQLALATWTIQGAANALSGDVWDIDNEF

Row | Kd [2] [nM] | Kd [6] [nM] | Binder | further results
1 | – | – | VH23-DANG/VL0(rb) (antibody, V domains shown) VH: QSMQESGPGLVKPSQTLSLTCTVSGFSLSSYAMSWIRQHPGKGLEWIGYIWSGGSTDYASWAKSRVTISKTSTTVSLKLSSVTAADTAVYYCARRYGTSYPDYGDANGFDPWGQGTLVTVSS VL: AYDMTQTPASVEVAVGGTVTIKCQASQSISSYLSWYQQKPGQRPKLLIYRASTLASGVSSRFKGSGSGTQFTLTISGVECADAATYYCQQCYSSSNVDNTFGGGTEVVVKR | koff [1]: 0.000338 s⁻¹
2 | 0.8 | – | Herceptarg CrossMab Trastuzumab arm (antibody, V domains shown) VH: QVQLVQSGAEVKKPGASVKVSCKASGFNIKDTYIHWVRQAPGQGLEWMGRIYPTNGYTRYAQKFQGRVTMTRDTSISTAYMELSRLRSDDTAVYYCSRWGGEGFYAMDYWGQGTMVTVSS VL: DIQLTQPPSVSVAPGQTARITCGASQDVSTAVAWYQQKPGQAPVLVVYSASFLYSGIPSRFSGSRSGTDFTLTISRVEAGDEADYYCQQHYTTPPTFGTGTKVTVLR | –
3 | – | – | Pertuzumab (antibody) chain 1: EVQLVESGGGLVQPGGSLRLSCAASGFTFTDYTMDWVRQAPGKGLEWVADVNPNSGGSIYNQRFKGRFTLSVDRSKNTLYLQMNSLRAEDTAVYYCARNLGPSFYFDYWGQGTLVTVSS chain 2: DIQMTQSPSSLSASVGDRVTITCKASQDVSIGVAWYQQKPGKAPKLLIYSASYRYTGVPSRFSGSGSGTDFTLTISSLQPEDFATYYCQQYYIYPYTFGQGTKVEIK | Kd [3]: 0.147 nM; Kd [4]: 0.62 nM; binding result [5]: no binding
4 | – | 9.65 | Herceptarg G2 Pertuzumab arm (antibody, V domains shown) VH: EVQLVESGGGLVQPGGSLRLSCAASGFTFTDYTMDWVRQAPGKGLEWVADVNPNSGGYIVNRRFKGRFTLSVDRSKNTLYLQMNSLRAEDTAVYYCARNLGPSFYFDYWGQGTLVTVSS VL: DIQMTQSPSSLSASVGDRVTITCKASQDVSTAVAWYQQKPGKAPKLLIYSASFRYTGVPSRFSGSRSGTDFTLTISSLQPEDFATYYCQQHYTTPPTFGQGTKVEIK | –
5 | – | 0.16 | Herceptarg D1-derived Pertuzumab arm (antibody, V domains shown) VH: EVQLVESGGGLVQPGGSLRLSCAASGFTFNDYTMDWVRQAPGKGLEWVADVNPNSGGSIVNRRFKGRFTLSVDRSKNTLYLQMNSLRAEDTAVYYCARNLGPFFYFDYWGQGTLVTVSS VL: DIQMTQSPSSLSASVGDRVTITCKASQDVSTAVAWYQQKPGKAPKLLIYSASFRYTGVPSRFSGSRSGTDFTLTISSLQPEDFATYYCQQHYTTPPTFGQGTKVEIK | –
6 | 1.82 | – | Herceptarg G2 Trastuzumab arm (antibody, V domains shown) VH: not shown VL: DIQMTQSPSSLSASVGDRVTITCKASQDVSTAVAWYQQKPGKAPKLLIYSASFRYTGVPSRFSGSRSGTDFTLTISSLQPEDFATYYCQQHYTTPPTFGQGTKVEIK | –
7 | – | 1.32 | Herceptarg E1 Pertuzumab arm (antibody, V domains shown) VH: EVQLVESGGGLVQPGGSLRLSCAASGFTFADYTMDWVRQAPGKGLEWVADVNPNSGGSIYNQRFKGRFTLSVDRSKNTLYLQMNSLRAEDTAVYYCARNLGPWFYFDYWGQGTLVTVSS VL: DIQMTQSPSSLSASVGDRVTITCKASQDVSTAVAWYQQKPGKAPKLLIYSASFRYTGVPSRFSGSRSGTDFTLTISSLQPEDFATYYCQQHYTTPPTFGQGTKVEIK | –
8 | 0.6 | – | Herceptarg D1-derived Trastuzumab arm (antibody, V domains shown) VH: not shown VL: DIQMTQSPSSLSASVGDRVTITCKASQDVSTAVAWYQQKPGKAPKLLIYSASFRYTGVPSRFSGSRSGTDFTLTISSLQPEDFATYYCQQHYTTPPTFGQGTKVEIK | –
9 | 0.72 | – | Herceptarg CLC Trastuzumab arm (E1) (antibody, V domains shown) VH: not shown VL: DIQMTQSPSSLSASVGDRVTITCKASQDVSTAVAWYQQKPGKAPKLLIYSASFRYTGVPSRFSGSRSGTDFTLTISSLQPEDFATYYCQQHYTTPPTFGQGTKVEIK | –
10 | – | 0.84 | Herceptarg CrossMab Pertuzumab arm (antibody) chain 1: not shown chain 2: DIQMTQSPSSLSASVGDRVTITCKASQDVSIGVAWYQQKPGKAPKLLIYSASYRYTGVPSRFSGSGSGTDFTLTISSLQPEDFATYYCQQYYIYPYTFGQGTKVEIKSSASTKGPSVFPLAPSSKSTSGGTAALGCLVKDYFPEPVTVSWNSGALTSGVHTFPAVLQSSGLYSLSSVVTVPSSSLGTQTYICNVNHKPSNTKVDKKVEPKSC | –
